Laboratory results: patent US10975142B2, “Endotrophin neutralization and use thereof” (THE BOARD OF REGENTS OF THE UNIVERSITY OF TEXAS SYSTEM, priority 2013, dated 2021)

Test system: diet induced obese (DIO) mice
Test: diet induced obese mice, hyperinsulinemic-euglycemic clamp
Type: in vivo
Conditions: 10B6 100 μg/mouse vs IgG
Procedure: FIGS. 24A-24D: Endotrophin neutralization improves the metabolic phenotype. FIG. 24A. Two cohorts of mice (n=8) were exposed to high fat diet for 45 days after weaning. At the indicated time points (arrowheads), mice were treated with anti-endotrophin monoclonal antibodies (100 μg/mouse) or equivalent amounts of non-immune antibody. Body weights were monitored. FIG. 24B. Glucose infusion rate and FIG. 24C. Suppression of hepatic glucose efflux was measured in a hyperinsulinemic euglycemic clamp. FIG. 24D. Table of parameters measured prior and during the clamp. Significant differences as indicated by unpaired student t-test.
To evaluate the therapeutic potential of endotrophin neutralizing monoclonal antibodies on metabolic perspectives, diet induced obese (DIO) mice were chronically treated with either IgG control or 10B6 (rat anti-mouse endotrophin monoclonal antibody) via intraperitoneal injection at 2 weeks after high-fat diet (HFD) challenge and maintained them on a HFD with antibody treatment for another 4 weeks. […] Strikingly, 10B6 treated DIO mice improved whole-body insulin sensitivity, as determined by the amount of glucose required to maintain euglycemia (FIG. 24B) and by the amount of suppression of hepatic glucose efflux (FIGS. 24C and D).

B1: 10B6: rat anti-mouse endotrophin monoclonal antibody; light chain variable SEQ ID NO: 2, heavy chain variable SEQ ID NO: 4 (antibody, V domains shown)
VH: QVQLQQSGPELAKPGSSVKISCKASGYTFTSYEMHWIKQRPGQGLEWIGYIYPESGSTGYNEKFKGKATLTVDKSSPTAYMQLSSLTPDNSAVYFCTRGLRVLGYVMDVWGHGTSVTVSS
VL: DVQLTQSPSFLSASVGDRVTINCKASQNINKYLNWYQQKLGEAPKRLIYNTNNLQTGIPSRFSGSASGTDYTLTISSLHPEDFATYFCLQHSSLYTFGAGTKLELK
whole-body insulin sensitivity (glucose required to maintain euglycemia, suppression of hepatic glucose efflux): improved
